{"source": "patent US20070248607A1", "about": "“NEGATIVE IMMUNOMODULATION OF IMMUNE RESPONSES BY NKG2D-POSITIVE CD4+ CELLS” (priority 2005, published 2007)", "molecules": {"B1": {"name": "sMICA: soluble MICA, NKG2D ligand added to CD4 T cell cultures (protein)", "chain": "EPHSLRYNLTVLSWDGSVQSGFLTEVHLDGQPFLRCDRQKCRAKPQGQWAEDVLGNKTWDRETRDLTGNGKDLRMTLAHIKDQKEGLHSLQEIRVCEIHEDNSTRSSQHFYYDGELFLSQNLETKEWTMPQSSRAQTLAMNVRNFLKEDAMKTKTHYHAMHADCLQELRRYLKSGVVLRRTVPPMVNVTRSEASEGNITVTCRASGFYPWNITLSWRQDGVSLSHDTQQWGDVLPDGNGTYQTWVATRICQGEEQRFTCYMEHSGNHSTHPVPSGK"}}, "format_in_all_cases": "cell-based", "key": {"NKG2D- CD4+ T cells": {"system": "NKG2D- CD4+ T cells", "experiment": "CD4 T cell proliferation (CFSE dilution, [3H]thymidine incorporation)", "conditions": "anti-CD3 activated CD4 T cell cultures", "method": "(§1) For analysis of CD4^+ T cell proliferation in conjunction with NKG2D expression, 1×10^7 freshly isolated pure CD4^+ T cells/ml PBS were labeled with an equal volume of 2 μM CFSE (Molecular Probes) for 8 min at room temperature. CFSE was quenched with an equal volume of fetal calf serum for one min followed by three washes with AIM-V medium. CFSE labeled cells were then plated, stimulated and phenotypically analysed as described above. Additional ligands tested in this experimental setting included any of either C1R-MICB, ULBP-1, -2, -3, 4, or -5 transfectants, recombinant soluble MICB, or 5% soluble MIC containing serum from a MIC+ tumor patient and MIC− control serum. To test ligand specificity, ligand containing cultures were treated with either 10 μg/ml 6D4 (anti-MICA/B), 10 μg/ml 3F1 (anti-ULBP-1), or appropriately diluted isotype control immunoglobulins. In some experiments, ligand was replaced by solid-phase anti-NKG2D (1D11) at the concentrations ranging from 5-50 ng/ml. In some experiments, ligand/solid-phase mAb were added on day 1, 2 or 3 after the initiation of culture.\nTo assess inhibition of CD4^+ T cell proliferation by standard [^3H]thymidine incorporation experiments, freshly isolated pure CD4^+ T cells were plated at 1×10^5 cells/well in a 96 well flat bottom plate containing titrated cross-linked anti-CD3 (see above) or isotype control Ig with or without titrated recombinant soluble MIC. After 72 hrs at 37° C., plates were pulsed with 3 μCi of [^3H]thymidine (Perkin Elmer) for 12 hrs. Plates were harvested and samples analysed by liquid scintillation using Uni-Filter GF/C plates and a TopCount Counter (both from Packard). Counts from triplicates were averaged."}, "NKG2D+ CD4+ T cells": {"system": "NKG2D+ CD4+ T cells", "experiment": "NKG2D expression and expansion of activated CD4 T cells", "conditions": "for expansion / proliferation of NKG2D+ CD4+ T cells: anti-CD3 activated CD4 T cell cultures", "method": "For the analysis of NKG2D expression in activated CD4 T cells, freshly isolated pure CD4^+ T cells were plated at 0.3×10^6/2 ml AIM-V medium (Gibco)/well in 24 well plates for various periods of time with or without the presence of mitogenic stimuli and/or the presence of NKG2D ligands. Mitogenic stimuli included either cross-linked anti-CD3 (plates were first coated with AffiniPure F(ab′)2 fragment goat anti-mouse IgG1, Fcγ fragment specific (Jackson ImmunoResearch Laboratories, Inc.) at 10 μg/ml in PBS over night at 4° C. followed by a 4 hr room temperature incubation with anti-CD3 (OKT3, Orthoclone, Ortho Biotech Products, L.P.) at 50 ng/ml (if not indicated otherwise), PHA (5 μg/ml), or PMA/Ionomycin. Ligand additions consisted of either irradiated CLR-MICA and control transfectants at a T cell:transfectant ratio of 5:1, or recombinant soluble MICA at 25 ng/ml if not indicated otherwise. Cells were harvested at various time points after the initiation of culture and tested for NKG2D, CD4 and CD3 coexpression using directly conjugated mAbs for standard three color flow cytometry.\nas §1"}, "CD4 T cells": {"system": "CD4 T cells", "experiment": "Cell cycle analysis by propidium iodide staining", "conditions": "anti-CD3 activated CD4 T cell cultures"}}}
{"molecule": "B1", "values": [{"measurement": "proliferation of NKG2D- CD4+ T cells", "setting": "NKG2D- CD4+ T cells", "result": "inhibition of NKG2D^− CD4^+ T cell proliferation"}, {"measurement": "expansion / proliferation of NKG2D+ CD4+ T cells", "setting": "NKG2D+ CD4+ T cells", "result": "expansion of NKG2D^+ CD4^+ T cells"}, {"measurement": "expansion / proliferation of NKG2D+ CD4+ T cells", "setting": "NKG2D+ CD4+ T cells; listed as soluble MICA", "result": "proliferate"}, {"measurement": "NKG2D induction on normal CD4+ T cells", "setting": "NKG2D+ CD4+ T cells; upon anti-CD3 activation", "result": "enhanced"}, {"measurement": "cell cycle distribution", "setting": "CD4 T cells", "result": "partial cell cycle arrests in G0/G1"}]}
